Patent US20040091953

Tested on: T1, peptide corresponding to the first 22 amino acids of histone 4, chemically acetylated in vitro
T1 sequence: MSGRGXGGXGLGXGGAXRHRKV

**Q.** For hSIRT6, which NAD-dependent deacetylase activity is on record?
**A.** showed no detectable activity
